From patent US20140274782A1, “AFFINITY REAGENTS AND METHODS FOR DETECTION, PURIFICATION, AND PROTEOMIC ANALYSIS OF METHYLATED PROTEINS” (The Board of Trustees of the Leland Stanford Junior …, priority 2013, published 2014)

B1: DHX15 (protein, UniProt O43143 1-795, looked up)
ATP-dependent RNA helicase …: MSKRHRLDLGEDYPSGKKRAGTDGKDRDRDRDREDRSKDRDRERDRGDREREREKEKEKELRASTNAMLISAGLPPLKASHSAHSTHSAHSTHSTHSAHSTHAGHAGHTSLPQCINPFTNLPHTPRYYDILKKRLQLPVWEYKDRFTDILVRHQSFVLVGETGSGKTTQIPQWCVEYMRSLPGPKRGVACTQPRRVAAMSVAQRVADEMDVMLGQEVGYSIRFEDCSSAKTILKYMTDGMLLREAMNDPLLERYGVIILDEAHERTLATDILMGVLKEVVRQRSDLKVIVMSATLDAGKFQIYFDNCPLLTIPGRTHPVEIFYTPEPERDYLEAAIRTVIQIHMCEEEEGDLLLFLTGQEEIDEACKRIKREVDDLGPEVGDIKIIPLYSTLPPQQQQRIFEPPPPKKQNGAIGRKVVVSTNIAETSLTIDGVVFVIDPGFAKQKVYNPRIRVESLLVTAISKASAQQRAGRAGRTRPGKCFRLYTEKAYKTEMQDNTYPEILRSNLGSVVLQLKKLGIDDLVHFDFMDPPAPETLMRALELLNYLAALNDDGDLTELGSMMAEFPLDPQLAKMVIASCDYNCSNEVLSITAMLSVPQCFVRPTEAKKAADEAKMRFAHIDGDHLTLLNVYHAFKQNHESVQWCYDNFINYRSLMSADNVRQQLSRIMDRFNLPRRSTDFTSRDYYINIRKALVTGYFMQVAHLERTGHYLTVKDNQVVQLHPSTVLDHKPEWVLYNEFVLTTKNYIRTCTDIKPEWLVKIAPQYYDMSNFPQCEAKRQLDRIIAKLQSKEYSQY
B2: DDX3X (protein, UniProt O00571 2-662, looked up)
ATP-dependent RNA helicase …: SHVAVENALGLDQQFAGLDLNSSDNQSGGSTASKGRYIPPHLRNREATKGFYDKDSSGWSSSKDKDAYSSFGSRSDSRGKSSFFSDRGSGSRGRFDDRGRSDYDGIGSRGDRSGFGKFERGGNSRWCDKSDEDDWSKPLPPSERLEQELFSGGNTGINFEKYDDIPVEATGNNCPPHIESFSDVEMGEIIMGNIELTRYTRPTPVQKHAIPIIKEKRDLMACAQTGSGKTAAFLLPILSQIYSDGPGEALRAMKENGRYGRRKQYPISLVLAPTRELAVQIYEEARKFSYRSRVRPCVVYGGADIGQQIRDLERGCHLLVATPGRLVDMMERGKIGLDFCKYLVLDEADRMLDMGFEPQIRRIVEQDTMPPKGVRHTMMFSATFPKEIQMLARDFLDEYIFLAVGRVGSTSENITQKVVWVEESDKRSFLLDLLNATGKDSLTLVFVETKKGADSLEDFLYHEGYACTSIHGDRSQRDREEALHQFRSGKSPILVATAVAARGLDISNVKHVINFDLPSDIEEYVHRIGRTGRVGNLGLATSFFNERNINITKDLLDLLVEAKQEVPSWLENMAYEHHYKGSSRGRSKSSRFSGGFGARDYRQSSGASSSSFSSSRASSSRSGGGGHGSSRGFGGGGYGGFYNSDGYGGNYNSQGVDWWGN
B3: KIF2A (protein, UniProt O00139 1-706, looked up)
Kinesin-like protein KIF2A: MATANFGKIQIGIYVEIKRSDGRIHQAMVTSLNEDNESVTVEWIENGDTKGKEIDLESIFSLNPDLVPDEEIEPSPETPPPPASSAKVNKIVKNRRTVASIKNDPPSRDNRVVGSARARPSQFPEQSSSAQQNGSVSDISPVQAAKKEFGPPSRRKSNCVKEVEKLQEKREKRRLQQQELREKRAQDVDATNPNYEIMCMIRDFRGSLDYRPLTTADPIDEHRICVCVRKRPLNKKETQMKDLDVITIPSKDVVMVHEPKQKVDLTRYLENQTFRFDYAFDDSAPNEMVYRFTARPLVETIFERGMATCFAYGQTGSGKTHTMGGDFSGKNQDCSKGIYALAARDVFLMLKKPNYKKLELQVYATFFEIYSGKVFDLLNRKTKLRVLEDGKQQVQVVGLQEREVKCVEDVLKLIDIGNSCRTSGQTSANAHSSRSHAVFQIILRRKGKLHGKFSLIDLAGNERGADTSSADRQTRLEGAEINKSLLALKECIRALGRNKPHTPFRASKLTQVLRDSFIGENSRTCMIATISPGMASCENTLNTLRYANRVKELTVDPTAAGDVRPIMHHPPNQIDDLETQWGVGSSPQRDDLKLLCEQNEEEVSPQLFTFHEAVSQMVEMEEQVVEDHRAVFQESIRWLEDEKALLEMTEEVDYDVDSYATQLEAILEQKIDILTELRDKVKSFRAALQEEEQASKQINPKRPRAL
B4: CALD1 (protein, UniProt Q05682 1-793, looked up)
Caldesmon: MDDFERRRELRRQKREEMRLEAERIAYQRNDDDEEEAARERRRRARQERLRQKQEEESLGQVTDQVEVNAQNSVPDEEAKTTTTNTQVEGDDEAAFLERLARREERRQKRLQEALERQKEFDPTITDASLSLPSRRMQNDTAENETTEKEEKSESRQERYEIEETETVTKSYQKNDWRDAEENKKEDKEKEEEEEEKPKRGSIGENQVEVMVEEKTTESQEETVVMSLKNGQISSEEPKQEEEREQGSDEISHHEKMEEEDKERAEAERARLEAEERERIKAEQDKKIADERARIEAEEKAAAQERERREAEERERMREEEKRAAEERQRIKEEEKRAAEERQRIKEEEKRAAEERQRIKEEEKRAAEERQRARAEEEEKAKVEEQKRNKQLEEKKHAMQETKIKGEKVEQKIEGKWVNEKKAQEDKLQTAVLKKQGEEKGTKVQAKREKLQEDKPTFKKEEIKDEKIKKDKEPKEEVKSFMDRKKGFTEVKSQNGEFMTHKLKHTENTFSRPGGRASVDTKEAEGAPQVEAGKRLEELRRRRGETESEEFEKLKQKQQEAALELEELKKKREERRKVLEEEEQRRKQEEADRKLREEEEKRRLKEEIERRRAEAAEKRQKMPEDGLSDDKKPFKCFTPKGSSLKIEERAEFLNKSVQKSSGVKSTHQAAIVSKIDSRLEQYTSAIEGTKSAKPTKPAASDLPVPAEGVRNIKSMWEKGNVFSSPTAAGTPNKETAGLKVGVSSRINEWLTKTPDGNKSPAPKPSDLRPGDVSSKRNLWEKQSVDKVTSPTKV

Molecular target: T1, G9a and GLP (Homo sapiens, UniProt Q96KQ7+Q9H9B1)
T1 sequence (Q96KQ7 2-1210 limits assumed): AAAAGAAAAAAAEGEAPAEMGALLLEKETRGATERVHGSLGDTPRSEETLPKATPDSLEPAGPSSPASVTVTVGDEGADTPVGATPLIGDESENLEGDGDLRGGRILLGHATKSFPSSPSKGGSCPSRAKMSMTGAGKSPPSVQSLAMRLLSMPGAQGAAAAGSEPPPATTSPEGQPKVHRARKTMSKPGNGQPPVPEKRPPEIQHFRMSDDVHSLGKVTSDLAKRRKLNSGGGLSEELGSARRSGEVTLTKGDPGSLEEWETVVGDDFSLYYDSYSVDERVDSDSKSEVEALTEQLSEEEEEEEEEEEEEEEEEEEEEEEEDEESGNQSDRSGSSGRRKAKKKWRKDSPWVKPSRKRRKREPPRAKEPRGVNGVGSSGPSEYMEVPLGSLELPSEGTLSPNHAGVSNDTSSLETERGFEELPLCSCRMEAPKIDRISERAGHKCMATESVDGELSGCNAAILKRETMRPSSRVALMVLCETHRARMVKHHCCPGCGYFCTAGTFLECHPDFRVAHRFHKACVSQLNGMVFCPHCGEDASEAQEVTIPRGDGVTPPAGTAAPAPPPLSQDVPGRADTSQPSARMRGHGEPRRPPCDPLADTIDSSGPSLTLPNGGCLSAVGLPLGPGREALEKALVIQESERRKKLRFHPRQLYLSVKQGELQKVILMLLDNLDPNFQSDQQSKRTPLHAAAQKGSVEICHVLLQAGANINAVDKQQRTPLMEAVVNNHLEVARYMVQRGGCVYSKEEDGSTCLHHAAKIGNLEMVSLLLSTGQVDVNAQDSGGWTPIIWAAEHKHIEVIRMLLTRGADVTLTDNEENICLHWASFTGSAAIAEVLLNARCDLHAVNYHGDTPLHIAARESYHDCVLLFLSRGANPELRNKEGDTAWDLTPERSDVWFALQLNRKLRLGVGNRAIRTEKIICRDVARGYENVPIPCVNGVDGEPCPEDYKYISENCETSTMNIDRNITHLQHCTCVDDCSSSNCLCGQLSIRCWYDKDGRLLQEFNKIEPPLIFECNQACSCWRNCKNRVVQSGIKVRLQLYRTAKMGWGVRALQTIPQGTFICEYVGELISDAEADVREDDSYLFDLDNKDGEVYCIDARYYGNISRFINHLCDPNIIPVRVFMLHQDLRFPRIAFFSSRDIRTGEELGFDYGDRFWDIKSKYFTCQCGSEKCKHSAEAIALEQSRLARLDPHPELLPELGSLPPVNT
T1 sequence (Q9H9B1 2-1298 limits assumed): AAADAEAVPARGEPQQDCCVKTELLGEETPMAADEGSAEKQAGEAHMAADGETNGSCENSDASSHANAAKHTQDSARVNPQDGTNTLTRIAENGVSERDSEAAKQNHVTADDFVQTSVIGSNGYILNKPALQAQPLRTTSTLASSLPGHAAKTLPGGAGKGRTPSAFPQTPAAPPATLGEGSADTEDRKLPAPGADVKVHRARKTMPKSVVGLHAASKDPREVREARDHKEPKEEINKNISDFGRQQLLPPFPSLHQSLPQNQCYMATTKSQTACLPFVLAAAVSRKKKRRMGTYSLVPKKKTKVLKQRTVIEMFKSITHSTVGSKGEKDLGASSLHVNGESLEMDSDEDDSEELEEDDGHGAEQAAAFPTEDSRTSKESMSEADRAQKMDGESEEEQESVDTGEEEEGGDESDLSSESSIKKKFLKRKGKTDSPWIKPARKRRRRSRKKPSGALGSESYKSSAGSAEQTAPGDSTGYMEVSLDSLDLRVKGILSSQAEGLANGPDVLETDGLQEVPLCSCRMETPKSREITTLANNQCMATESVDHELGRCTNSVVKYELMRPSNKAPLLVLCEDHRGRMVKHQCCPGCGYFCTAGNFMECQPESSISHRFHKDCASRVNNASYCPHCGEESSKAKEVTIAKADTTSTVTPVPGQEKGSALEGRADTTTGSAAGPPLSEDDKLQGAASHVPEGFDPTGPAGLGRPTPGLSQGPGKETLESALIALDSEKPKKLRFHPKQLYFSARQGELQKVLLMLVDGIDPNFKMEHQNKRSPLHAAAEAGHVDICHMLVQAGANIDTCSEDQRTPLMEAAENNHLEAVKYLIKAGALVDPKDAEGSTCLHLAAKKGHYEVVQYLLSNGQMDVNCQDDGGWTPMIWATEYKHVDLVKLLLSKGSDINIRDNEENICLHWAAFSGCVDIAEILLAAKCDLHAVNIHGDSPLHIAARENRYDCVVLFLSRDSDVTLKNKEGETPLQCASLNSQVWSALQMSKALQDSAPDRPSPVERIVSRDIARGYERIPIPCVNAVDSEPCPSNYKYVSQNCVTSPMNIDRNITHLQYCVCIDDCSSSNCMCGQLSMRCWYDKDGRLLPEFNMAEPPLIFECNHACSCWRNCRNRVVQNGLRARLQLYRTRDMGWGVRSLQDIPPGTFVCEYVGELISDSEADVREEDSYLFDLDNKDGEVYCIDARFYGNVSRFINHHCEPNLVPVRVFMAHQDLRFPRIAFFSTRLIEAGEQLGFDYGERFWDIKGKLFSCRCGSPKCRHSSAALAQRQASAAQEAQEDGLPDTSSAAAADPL
Assay: Triple SILAC pull-down after UNC0638 treatment of 293T cells, DMSO/UNC0638 ratio of protein captured by 3×MBT;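 further: mass spectrometry (Q-Exactive) SILAC quantitation, DMSO/UNC0638 ratio computed after subtracting 3×MBTD355N mutant pull-down background, only proteins with at least twofold 3×MBT over mutant signal considered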
Type: cell-based
Parameters: cells were treated for 24 hours with UNC0638 at 2.5 μM or DMSO vehicle control; endogenous in cells; host or cells: HEK 293T
Conditions: SILAC ratio DMSO/UNC0638 of protein pulled down with 3xMBT; UNC0638 in heavy SILAC media

Molecule	Relative to UNC0638 UNC Heavy [log base 2]
B1	0.13
B2	0.25
B3	0.23
B4	0.29

Same assay, conditions: SILAC ratio DMSO/UNC0638 of protein pulled down with 3xMBT; UNC0638 in light SILAC media

Molecule	Relative to UNC0638 UNC Light [log base 2]
B1	0.27
B2	0.14
B3	0.15
B4	0.09

Same assay, conditions: average of UNC Light and UNC Heavy experiments

Molecule	Relative to UNC0638 Average [log base 2]
B1	0.20
B2	0.20
B3	0.19
B4	0.19

System: 3×MBT domain of L3MBTL1
Assay: Triple SILAC pull-down, 3xMBT/3xMBTD355N ratio (cytoplasmic, nuclear and chromatin fractions of 293T cells);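 further: proteins quantified with MaxQuant, requiring at least two unique peptides and quantification in both label directions, normalized to the mean of proteins from a digested loading control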
Type: binding, human
Conditions: SILAC ratio, pull-down 3xMBT vs 3xMBTD355N; experiment with UNC0638 in heavy SILAC media

Molecule	3xMBT/D355N UNC Heavy [log base 2]
B1	2.98
B2	2.64
B3	2.05
B4	3.53

Same assay, conditions: SILAC ratio, pull-down 3xMBT vs 3xMBTD355N; experiment with UNC0638 in light SILAC media

Molecule	3xMBT/D355N UNC Light [log base 2]
B1	2.54
B2	2.58
B3	2.33
B4	3.50
